Measurements from the nanobody polyreactivity screen of Harvey et al. (2022).

Assay: yeast display, Sf9 membrane polyspecificity reagent, FACS + sequencing; frameworks hold sequencing errors
Procedure, shortened: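 A synthetic nanobody library was expressed on Saccharomyces cerevisiae BJ5465 by galactose induction for 36–48 hours. The library was stained for 1 hour at 4 °C with 10% biotinylated, detergent-solubilized Sf9 membrane reagent and enriched with streptavidin microbeads before FACS. Low and high (top ~1%) gates were set on anti-HA fluorescence for expression and streptavidin fluorescence for reagent binding, and each polyreactivity label reflects the gate of origin.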

Sequence	polyreactivity (PSR sort gate)
QVQLVESGGGLVQAGGSLRLSCAASGRTFSYNAMGWYRQAPGKERELVAAISYDGGRTYYADSVKGRFTISRDNAKNTVYLQMNSLKPEDTAVYYCAAYPYRGPHPWTIGDYWGQGTQVTVSS	low polyreactivity
QLQLVESGGGLVQAGGSLRLSCAASGSTYHINAMGWYRQAPGKERELVADINWSGGSTYYADSVKGRFTISRDNAKNTVYLQMNSLKPEDTAVYYCAADVGVFTYSPYDAGEHDYWGQGTQVTVSS	low polyreactivity
QVQLVESGGGLVQAGGSLRLSCAASGSTFGYNAMGWYRQAPGKERELVAAISNGSDRTYYADSVKGRFTISRDNAKNTVYLQMNSLKPEDTAVYYCAKDRDFSSPPTESGFDYWGQGTQVTVSS	low polyreactivity
QVQLVESGGGLVQAGGSLRLSCAASGFTFDNYTMGWYRQAPGKERELVAAITSSAGSTDYADSVKGRFTISRDNAKNTVYLQMNSLKPEDTAVYYCNDDFLYGTYDYWGQGTQVTVSS	low polyreactivity
QVQLVESGGGLVQAGGSLRLSCAASGRIFRYYAMGWYRQAPGKERELVADSTRGGGSTYYADSVKGRFTISRDNAKNTVYLQMNSLKPEDTAVYYCAKDGSGGLPVLYRYRYDYWGQGTQVTVSS	high polyreactivity
QVQLVESGRGLVQAGGSLRLSCAASGIIFVKYAMGWYRQAPGKERELVAAISTRGGSTYYADSVKGRFTISRDNAKNTVYLQMNSLNPEDTAVYYCADDATRKSQLPNTVPYDYWGQGTQVTVSS	high polyreactivity
QVQLVESGGGLVQAGGSLRLICAASGITFYIYAMGWYRQAPGKERELVATISWSDGRTYYADSVKGRFTISRDNAKNTVYLQMNSLKPEDTAVYYCAADWWYYQFDYEYWGQGTQVTVSS	low polyreactivity
QVQLVESGGGLLQAGGSLRLSCAASGSIFERNAIGWYRQAPGKERELVAVITRSGGSTYYADSVKGRFTISRDNAKNTVYLQMNSLKREDTAVYYCNARTAYFYGLDYWGQGTQVTVSS	high polyreactivity
QVQLVESGGGLVQAGGSLRLSCAASGRIFYNNAMGWYRQAPGKERELVATISRGGSTNYADSVKGRFTISRDNAKNTVYLQMNSLKPEDTAVYYCAAVTTRSYGYEYWGQGTQVTVSS	low polyreactivity
QFQLVQSGGGLVQAGGSLRLSCAASGFILEPNAVGWYRQAPGKERELVATISYSGGGTYYADSVKGRFTISRDNAKNTVYLQLNCLKPEDTAVYYCAVDWYYYVWWYDYWGQGTHVTVSS	high polyreactivity
QVQLVESGGGLVQAGGSLRLSCAASGSTFAYYVMGWYRQAPGKERELVAAITSSGGRTYYADSVKGRFTISRDNAKNTVYLQMNSLKPEDTAVYYCAKVSQRRVDNSDYDYWGQGTQVTVSS	high polyreactivity
QVQLVESGGGLVQARVSLRLSCAASGRIYGYTMGWYRQAPGKERELVAAITRNGGSTYYADSVKARFTISRDNSKNTVSLQMNSLKPEDNAVYYCAARNAFGTYYAWGQGTQVTVAS	high polyreactivity
QVQLVESGGGLVQAGGSLRLSCAASGNILTTYAMGWYRQAPGKERELVAAIRWSDGSTYYADSVKGRFTISRDNAKNTVYLQMNSLKPEDTAVYYCAADYHYPTWQGGYHYGYWGQGTQVTVSS	high polyreactivity
QVQLVESGGGLVQAGGSLRFSCAASGSIFGYYSLGWYRQAPGKERELVASITFRDGSTYYADSVKGRFTISRDNAKNTVYLQMNSLKPEDTAVYYCAARYYRRYFSDYDYWGQGTQVTVSS	low polyreactivity
QVQLVESGGGLVQAGGSLRLSCAASGFTFRINAMGWYRQAPGKERELVAVITGSGTSTYYADSVKGRFTISRDNAKNTVYLQMNSLKPEDTAVYYCAKRGFISQKYYYWGQGTQGTVSS	high polyreactivity
QVQLVESGGCLVQAGGSLRLSCDASGSIFYRNVIGWYRQAPGKERELVATISRGGTTNYADSVKGRFTISRDNAKNTVYLQMNSLKPEDTAVYYCAADASSKLYDYWGQGTQVTVSS	low polyreactivity
QVQLVESGGGLVQAGGSLRLSCAASGSTFKWYAMGLYRQAPGKERELVAAIDSRGGSTYYADSVKGRFTISRDNAKNTVFLQMISLKPEDTAVYYCNIYPHYSFQSHNYWGQGTQVTVSS	high polyreactivity
QVQLVESGGGLVQPGGSLRLSCAASGIIFSFYTIGWDRQEPGKEMELVAAISSSGGRTFYADSVKGRFTISRDNAKNTVYLQMNSLKPEDTAVYYCYAAHTREYYWGQGTQVTLSS	high polyreactivity
QVQLVESGGGLVQAGGSLRLSCAASGSTFYGYAMGWYRQAPGKERELVAAITVRGGSTYYADSVKGRFTISRDNAKNTVYLQMNSLKPEDTAVYYCAKGRLRRTYYRNKFSFDYWGQGTQVTVSS	high polyreactivity
QVQLVESGGGLVQAGGSLRLSCAASGRTLWYYTMGWYRQAPGKERELVADITRGTSTNYADSVKGRFTISRDNAKNTVYLQMNSLKPEDTAVYSCNRAHGRSRYSRDYDSWGQGTQVTVSS	low polyreactivity
QVQLVESGGGLVQAGGSLRLSCAASGFIFSKYTMGWSRQAPGKERELVASISWSGGSTYYADSVKGRFTISRDTAKNTVFLQMNSLKPEDTAVYYCAAEAWGWVFGGYYYWGQGTQVTVSS	low polyreactivity
QVQLVESGGGLVQAGGSLRLSCAASGGTFPQYAKGWYRQAPGKEREFVADITTRGGTTYYADSVKGRFTISRDNAKNTVYLQMNSLKPEENAVYYCAADNPADWWGLDYWGQGTQVTVSS	low polyreactivity

Sequence	polyreactivity (PSR sort gate)
QVQLVESGGGLVQAGGSLRLSCAASGRTSIWNSMGWYRQAPGKERELVASISWSGGSTYYADSVKGRFTISRDNAKNTVYLQMNSLKPEDTAVSYCAKTAYFLVFNEHLHNKRYDSWGQGTQVTVSS	low polyreactivity
QVQLVESGGRIVQAGGSLRLSCAASGSTFYPYAMGWSRPAPGKEGQFVAAITWSGGSTYADSVKGRFTISRDNAKNTVYLQMNSLKPEDTAVYYCAAQPFVIEGGYRGDYWGQGTQETVSS	low polyreactivity
QVQLVESGGGLVQAGGSLRLSCAASGSTFGDYAMGGYRQAPGKERELVAAISFSDGSTYYADSVKGRFTISRDNAKNTVYLQMNSLKPEDTAVYYCAKDAYWGYRWYTYDYWGQGTQVTVSS	low polyreactivity
QVQLVESGGGLVQAGGSLRLSCAASGSTFGYYTKGWYRQAPGKERELVAAITWSGGSTYYADSVKGRFTISRDNAKNTVYLQMNSLKPEDTAVYYCAADDYWTPFGYWGQGTQVTVSS	low polyreactivity
QVQLVESGGGLVQAGGSLRLSCAASGNTFNNNAMGWYRQAPGKERELVAITGDGGSTYYADSVKGRFTISRDNAKNTVYLQMNSLKPEDTAVYYCAADYLYRYQTMGYWGQGTQVTVSS	low polyreactivity
QVQLVESGGGLVQAGGSLRLSCAASGRIFTVYAMGWYRQAPGKERELVAAITRGGGGTYYADSVKGRFTISRDNAKNTVYFQMNSLKPEETAVYYCAAAYRGDRWSYRVDYWGQGTQVTVSS	high polyreactivity
QVQLVESGGGLVQAGGSLRLSCAASGSTFKVYAMGWYRQAPGKERELVAVISGGGRTNYADSVKGRFTISRDNAKNTVYLQMNSLKPEDTAVYYCAALGPYGSARRKYGYWGQGTQVTVSS	high polyreactivity
QVQLEESGGGLVQAGGSLRLSCPPSGSTYYVYAMGWYRPAPGKERELVAAIDGGDTYYADSVKGGFTISRDNAMNTVFLQMNSLKPEDTAVYYCAAESLPEISVGLGFWGQGTQVTVSS	low polyreactivity
QVQLVESGGGLVQAGGSLRLSCAASGYILPKNTMGWYRQAPGKERELVAAISWSGGSTFYADSVKGRFTISRDNAKHTVYLQMNSLKPEDTAVYYCAADRSWSWYYRYDYWGQGTQVTVSS	low polyreactivity
QVQLVESGGGLVQAGGSLRLSCAASGRTFHRYAMGWYRQAPGKERELVAAITSSGGSPNYADSVKGRFTISRDNAKNTVYLQMNSLKPEDTAVYYCATDRYRYTSHPWSRGFDYWGQGTQVTVSS	low polyreactivity
QVQLVESGGGLVQAGGSLRLSCAASGSTFAYNAMGWYRQAPGKERELVAAISWRGGSTYYADSVKGRFTISRDNAKNTVYLQMNSLKPEDTAVYYCAALYPYKREDYWGQGTQVTVSS	high polyreactivity
HVQLVESGGGLVQAGGSRLLSCAASGFTIYANAMGWYSQAPGKERELVAAITWRGGSTYYADSVKVRFTISRDNAKNTVYLQMNSLKPADTAVYYCNALKGRPVRSYLASPSYRYEYWGQGTQVTVSS	high polyreactivity
QVQLVESGGALVQAGGSLRLSCAASGRIFRSYVMGWYRQAPGKERELVATITGGGRTNYADSVKGRFTISRDNAKNTVYLQMTSLKPEDTAVYYCAGVYRWWPFHAFDYWGQGTQVTVSS	high polyreactivity
QVQLVESGGGLVQAGGSLRLSCAASGSIFTVYAMGWYRQAPGKERELVATITTGGSTNYADSVKGRFTISRDNAKTTVYLQMNSLKPEDTAVYYCAATYWSWISLRFYWGQGTQVTVSS	low polyreactivity
QVQLVDSGGGLVQAGGTLRLSCAASGFTFIYYAMGWYRQAPGKERELVAAISASGGSTYYADSVKGRFTISRDNAKNTVYLQMNSLKPEDTAVYYCNKYWRKPPAGGYYYWGQGTQVTVSS	high polyreactivity
QGQLEESGGGLVQAGGSLRLSCAAYGRIFYEYAMGLYRQAPGKERELVAISTAGCNTYYADSVKGRFTISRDNGKNTDYLQMNILKPEDTAVYYCAARLQYYPYYYWGQGTQVTVSS	high polyreactivity
QVQLVESGGGLVQAGGSLRLSCAASGYTFYANAMGWYRQAPGKEREFVASITWSGGSTYYADSVKGRFTISRDNAKNTVYLQMNSLKPEDTAVYYCADESWFKYDYWGQGTQVTVSS	low polyreactivity
QVQLVESGGGLVQAGGSLRLSCAASGLIFRYYDMGWYRQAPGKERELVAAISSSGTRTYYADSVKGRFTISRENPKNTVYLQMNSLKPEDTSVYYCATENQNPTGGYWGQGTQVTVSS	high polyreactivity
QVQLVESGGGLVQAGGSLRLSCAASGSTVSPNAMGWDRPAPGKERELVAAITYRGANTYYADSVKGRFTISRDNAKNTVYLQMNSLKPEDTAVYYCAATYGSWISLRFYWGQGTQVTVSS	low polyreactivity
QVQLVESGGGLLQAGGSLRKSCAASGFTFDENSMGGYRQAPAINYSGASTYYAVSVKGRFTISRDNAKNTVYLQMNSLKPEDTAVYYCAAEVVAQMIYWGQGTQVTVSS	low polyreactivity
QVQLVESGGGLVQAGGSLRLSCAASGRTFYYYAMGWYRQEPGKERELVAAISWSGGRTYYADSVKGRFTISRDNAKNTVYLQMNSLNPEDTAVYYCNAEPPRGYTVSSGGEMDYWGQGTQVTVSS	low polyreactivity
